Measured values from US20240175869A1.
pEC50: −log10 of the molar value.

How the values were obtained:
ALK6 [1] = assay: solid-phase binding assay, MuSK immobilized, ALK6 at 100 nM (FIG. 7)
ALK6 [2] = assay: solid-phase binding assay, pH 6.0 (FIG. 12)
ALK6 [3] = assay: solid-phase binding assay, pH 7.4 (FIG. 12)
ALK6 [4] = assay: solid-phase binding assay, half max read from the curve (FIG. 8)
ALK6 [5] = assay: solid-phase binding assay, saturation measured at 100 nM ALK6, pH 6.0
ALK6 [6] = assay: solid-phase binding assay, saturation measured at 100 nM ALK6, pH 7.4
ALK6 [7] = assay: solid-phase binding assay, MuSK construct immobilized, ALK6 at 100 nM (FIG. 8)
ALK6 [8] = assay: solid-phase binding assay, MuSK construct immobilized, ALK6 titrated, pH 6.0; given as Half Max
ALK6 [9] = assay: solid-phase binding assay, MuSK construct immobilized, ALK6 titrated, pH 7.4; given as Half Max
ALK6 [10] = assay: solid-phase binding assay, pH 6.0 (FIG. 13)
ALK6 [11] = assay: solid-phase binding assay, pH 7.4 (FIG. 13)
ALK6 [12] = assay: solid-phase binding assay, several assays, ALK6 at 100 nM
ALK6 [13] = assay: solid-phase binding assay, half max read from the curve (FIG. 10)
ALK6 [14] = assay: solid-phase binding assay, half max read from the curve (FIG. 9)
ALK6 [15] = assay: solid-phase binding assay, isolated domain immobilized, ALK6 titrated (FIG. 9)

isolated MuSK Ig2 domain, His-tagged (receptor), sequence (Q62838 121-205): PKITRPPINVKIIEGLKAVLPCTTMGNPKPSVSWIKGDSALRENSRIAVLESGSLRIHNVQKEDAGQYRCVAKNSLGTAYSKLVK
MuSK Ig1-Ig2 only construct, His-tagged (receptor), sequence (Q62838 22-205): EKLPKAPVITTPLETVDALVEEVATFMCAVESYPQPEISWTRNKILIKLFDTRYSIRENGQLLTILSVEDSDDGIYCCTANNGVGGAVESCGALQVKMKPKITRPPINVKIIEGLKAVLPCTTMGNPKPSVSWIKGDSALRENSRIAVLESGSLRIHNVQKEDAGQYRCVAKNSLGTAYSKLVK
ALK6, sequence (O00238 14-126): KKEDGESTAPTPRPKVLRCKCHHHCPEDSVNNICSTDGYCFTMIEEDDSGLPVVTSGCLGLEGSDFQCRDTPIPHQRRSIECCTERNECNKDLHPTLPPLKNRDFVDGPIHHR

Substance: MuSK ectodomain with Ig2 deletion (ΔIg2), His-tagged (receptor)
- absorbance at 100 nM ALK6 (absorbance (450 nm)) (ALK6 [1]): 0.15

Substance: MuSK Ig1-Ig2 only construct, His-tagged (receptor)
- pEC50 (ALK6 [2]): 8.20
- absorbance (absorbance (450 nm)) (ALK6 [2]): 3
- pEC50 (ALK6 [3]): 7.60
- absorbance (absorbance (450 nm)) (ALK6 [3]): 0.75
- pEC50 (ALK6 [4]): 8.20
- Saturation (%) (ALK6 [5]): 99%
- Saturation (%) (ALK6 [6]): 21%
- absorbance at 100 nM ALK6 (absorbance (450 nm)) (ALK6 [7]): 3
- pEC50 (ALK6 [8]): 7.80
- pEC50 (ALK6 [9]): 7.74

Substance: MuSK ectodomain with an Ig1 deletion (ΔIg1), His-tagged (receptor)
- pEC50 (ALK6 [10]): 8.19
- maximum absorbance (absorbance (450 nm)) (ALK6 [10]): 4
- pEC50 (ALK6 [11]): 8.19
- maximum absorbance (absorbance (450 nm)) (ALK6 [11]): 4
- absorbance at 100 nM ALK6 (absorbance (450 nm)) (ALK6 [12]): > 3
- pEC50 (ALK6 [13]): 7.90
- Saturation (%) (ALK6 [5]): 100%
- Saturation (%) (ALK6 [6]): 99%
- pEC50 (ALK6 [8]): 7.86
- pEC50 (ALK6 [9]): 8.04

Substance: isolated MuSK Ig2 domain, His-tagged (receptor)
- pEC50 (ALK6 [14]): 8.20
- Saturation (%) (ALK6 [5]): 83%
- absorbance (absorbance (450 nm)) (ALK6 [15]): 1.8
- pEC50 (ALK6 [8]): 7.63
